Experimental data published in patent US20050003420, “Recycled mutagenesis of restriction endonuclease toward enhanced catalytic activity” (published 2005).

Tests used:
[1] = target: T1, BsoBI D246R (UniProt P70985 P70985:1-323, D246R); assay: filter; 4 mM CaCl2; ±20; settings: chain copies: 2 inferred; label: 33P 5' end
T1 sequence: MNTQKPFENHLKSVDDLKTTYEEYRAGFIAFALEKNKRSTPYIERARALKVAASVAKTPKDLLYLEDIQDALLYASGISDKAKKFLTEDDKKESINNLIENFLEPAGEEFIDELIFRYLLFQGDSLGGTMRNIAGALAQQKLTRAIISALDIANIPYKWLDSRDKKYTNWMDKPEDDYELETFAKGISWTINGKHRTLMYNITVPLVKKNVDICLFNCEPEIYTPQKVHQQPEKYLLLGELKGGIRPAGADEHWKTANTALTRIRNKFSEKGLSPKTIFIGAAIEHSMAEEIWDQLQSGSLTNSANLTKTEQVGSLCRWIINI
Experimental: (§1) The binding condition was in 10 mM Tris-HCl, pH 7.5, 100 mM NaCl, 50 mg/ml BSA, 4 mM CaCl₂ in […] volume. The labeled DNA substrates were diluted to a final scintillation count of 1000-5000 cpm and varying amount of BsoBI or each variant was added. Following incubation at room temperature for 10 min, the bound complex was loaded onto Micropure EZ column (Millipore Corporation, Bedford, Mass.) and spun at 16K g for 1 min. Protein and protein:DNA complexes are bound to the membrane in the Micropure EZ column and only the free unbound DNA is in the flow-through fraction. 180 μl of the flow-through liquid was immediately transferred to scintillation counting vials filled with 1.5 ml OPTI-FLUOR for aqueous samples (Packard, Meriden, Conn.). The radioactivity count from the sample without BsoBI is F₀, and the radioactivity count from sample with BsoBI or each variant is F. The apparent Kd value is calculated from F/F₀ and the BsoBI concentration [E] according to equation [1]. F/F₀=a [Kd/([E]+Kd)]+b a and b are equation fitting parameters, where b is the non-specific flow-through, and a is the maximum change amplitude.
(§2) DNA binding properties of BsoBI endonuclease and variants: To obtain reproducible BsoBI:DNA binding data, a filter binding assay utilizing a microcentrifuge filter was developed. […]

[2] = target: T2, BsoBI D246A (UniProt P70985 P70985:1-323, D246A); assay: filter; 4 mM CaCl2; ±40; settings: chain copies: 2 inferred; label: 33P 5' end
T2 sequence: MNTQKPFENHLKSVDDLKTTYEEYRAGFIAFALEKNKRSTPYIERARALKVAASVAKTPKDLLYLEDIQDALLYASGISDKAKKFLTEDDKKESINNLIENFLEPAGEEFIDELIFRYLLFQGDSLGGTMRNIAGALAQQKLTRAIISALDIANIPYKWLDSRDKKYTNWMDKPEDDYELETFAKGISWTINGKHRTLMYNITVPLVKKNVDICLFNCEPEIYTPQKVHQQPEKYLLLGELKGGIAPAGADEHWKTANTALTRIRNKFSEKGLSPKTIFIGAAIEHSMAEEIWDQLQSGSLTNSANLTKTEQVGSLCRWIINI
Experimental: as §1, §2

[3] = target: T3, BsoBI D246C (UniProt P70985 P70985:1-323, D246C); assay: filter; 4 mM CaCl2; ±11; settings: chain copies: 2 inferred; label: 33P 5' end
T3 sequence: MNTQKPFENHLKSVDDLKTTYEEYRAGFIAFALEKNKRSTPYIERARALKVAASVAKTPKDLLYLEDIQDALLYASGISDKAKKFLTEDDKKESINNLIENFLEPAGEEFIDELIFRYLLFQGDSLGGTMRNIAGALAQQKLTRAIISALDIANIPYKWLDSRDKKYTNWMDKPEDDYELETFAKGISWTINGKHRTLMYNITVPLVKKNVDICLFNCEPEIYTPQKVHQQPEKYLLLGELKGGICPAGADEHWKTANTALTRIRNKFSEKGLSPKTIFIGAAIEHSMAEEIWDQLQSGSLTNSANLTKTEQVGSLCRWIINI
Experimental: as §1, §2

[4] = target: T4, BsoBI D246E (UniProt P70985 P70985:1-323, D246E); assay: filter; 4 mM CaCl2; ±20000; settings: chain copies: 2 inferred; label: 33P 5' end
T4 sequence: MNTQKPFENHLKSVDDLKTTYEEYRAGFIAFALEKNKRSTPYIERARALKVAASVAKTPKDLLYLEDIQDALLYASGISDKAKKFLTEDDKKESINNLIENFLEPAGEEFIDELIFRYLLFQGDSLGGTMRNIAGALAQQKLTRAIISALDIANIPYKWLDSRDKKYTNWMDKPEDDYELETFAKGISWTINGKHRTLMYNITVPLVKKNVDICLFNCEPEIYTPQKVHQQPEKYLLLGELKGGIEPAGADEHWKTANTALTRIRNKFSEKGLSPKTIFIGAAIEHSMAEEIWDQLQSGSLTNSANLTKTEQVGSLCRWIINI
Experimental: as §1, §2

[5] = target: T5, BsoBI restriction endonuclease (UniProt P70985 P70985:1-323); assay: filter; 4 mM CaCl2, 100 mM NaCl, pH 7.5, room temp; ±2.0; settings: tags: untagged, expressed from pRRS-bsoBIR in E. coli ER2683; chain copies: 2 inferred; label: 33P 5' end
T5 sequence: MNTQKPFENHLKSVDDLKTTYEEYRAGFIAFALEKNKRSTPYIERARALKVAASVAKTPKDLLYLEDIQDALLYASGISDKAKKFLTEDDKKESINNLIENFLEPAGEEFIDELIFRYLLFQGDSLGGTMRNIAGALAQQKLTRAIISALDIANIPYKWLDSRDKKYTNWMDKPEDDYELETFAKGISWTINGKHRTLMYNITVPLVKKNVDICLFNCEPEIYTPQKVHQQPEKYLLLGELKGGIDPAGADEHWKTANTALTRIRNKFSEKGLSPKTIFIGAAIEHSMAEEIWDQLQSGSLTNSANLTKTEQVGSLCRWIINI
Experimental: as §1, §2

[6] = target: T6, BsoBI D246Y (UniProt P70985 P70985:1-323, D246Y); assay: filter; 4 mM CaCl2; ±16; settings: chain copies: 2 inferred; label: 33P 5' end
T6 sequence: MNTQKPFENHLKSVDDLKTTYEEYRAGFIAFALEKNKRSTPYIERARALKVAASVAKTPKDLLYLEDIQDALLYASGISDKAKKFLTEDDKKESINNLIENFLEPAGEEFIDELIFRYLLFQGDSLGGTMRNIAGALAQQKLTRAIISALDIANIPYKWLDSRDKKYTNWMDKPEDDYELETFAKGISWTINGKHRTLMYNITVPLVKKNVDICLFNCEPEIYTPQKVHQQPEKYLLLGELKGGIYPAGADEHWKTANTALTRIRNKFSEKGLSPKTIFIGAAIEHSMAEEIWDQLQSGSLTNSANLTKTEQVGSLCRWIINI
Experimental: as §1, §2

[7] = target: T2, BsoBI D246A; assay: filter; 4 mM CaCl2; ±4; settings: chain copies: 2 inferred; label: 33P 5' end
Experimental: as §1
(§3) DNA binding properties of BsoBI endonuclease and variants: To obtain reproducible BsoBI:DNA binding data, a filter binding assay utilizing a microcentrifuge filter was developed. In the control experiment, more than 99% of the wt BsoBI endonuclease was retained on the filter of the spin column. When labeled duplex DNA was loaded onto the membrane in the absence of protein, more than 95% of the DNA passed through the column. […] The heat-treatment step removed approximately 80% of E. coli proteins. The filter-binding assay was performed for wt BsoBI endonuclease and variants D246A, D246C, D246E, D246R, and D246Y in the presence of Ca⁺⁺. The inclusion of Ca⁺⁺ in the binding buffer stabilizes the protein:DNA complex in DNA mobility shift assays (data not shown) and it was presumed that Ca⁺⁺ does the same in the filter binding assay.

[8] = target: T6, BsoBI D246Y; assay: filter; 4 mM CaCl2; ±4; settings: chain copies: 2 inferred; label: 33P 5' end
Experimental: as §1, §3

[9] = target: T5, BsoBI restriction endonuclease; assay: filter; 4 mM CaCl2, 100 mM NaCl, pH 7.5, room temp; ±0.9; settings: tags: untagged, expressed from pRRS-bsoBIR in E. coli ER2683; chain copies: 2 inferred; label: 33P 5' end
Experimental: as §1, §2

[10] = target: T3, BsoBI D246C; assay: filter; 4 mM CaCl2; ±9.8; settings: chain copies: 2 inferred; label: 33P 5' end
Experimental: as §1, §2

[11] = target: T1, BsoBI D246R; assay: filter; 4 mM CaCl2; ±4.6; settings: chain copies: 2 inferred; label: 33P 5' end
Experimental: as §1, §2

[12] = target: T4, BsoBI D246E; assay: filter; 4 mM CaCl2; ±1578; settings: chain copies: 2 inferred; label: 33P 5' end
Experimental: as §1, §2

[13] = target: T3, BsoBI D246C; assay: filter; 4 mM CaCl2; ±4; settings: chain copies: 2 inferred; label: 33P 5' end
Experimental: as §1, §3

[14] = target: T6, BsoBI D246Y; assay: filter; 4 mM CaCl2; ±2; settings: chain copies: 2 inferred; label: 33P 5' end
Experimental: as §1, §2

[15] = target: T2, BsoBI D246A; assay: filter; 4 mM CaCl2; ±0.6; settings: chain copies: 2 inferred; label: 33P 5' end
Experimental: as §1, §2

[16] = target: T5, BsoBI restriction endonuclease; assay: filter; 4 mM CaCl2, 100 mM NaCl, pH 7.5, room temp; ±1.2; settings: tags: untagged, expressed from pRRS-bsoBIR in E. coli ER2683; chain copies: 2 inferred; label: 33P 5' end
Experimental: as §1, §2

[17] = target: T4, BsoBI D246E; assay: filter; 4 mM CaCl2; ±683; settings: chain copies: 2 inferred; label: 33P 5' end
Experimental: as §1, §2

[18] = target: T1, BsoBI D246R; assay: filter; 4 mM CaCl2; ±3.5; settings: chain copies: 2 inferred; label: 33P 5' end
Experimental: as §1, §2

[19] = target: T5, BsoBI restriction endonuclease; assay: filter; 4 mM CaCl2, non-specific control; ±143; settings: tags: untagged, expressed from pRRS-bsoBIR in E. coli ER2683; chain copies: 2 inferred; label: 33P 5' end
Experimental: as §1, §2

[20] = target: T2, BsoBI D246A; assay: filter; 4 mM CaCl2; ±97; settings: chain copies: 2 inferred; label: 33P 5' end
Experimental: as §1, §2

[21] = target: T1, BsoBI D246R; assay: filter; 4 mM CaCl2; ±4.9; increased non-specific binding; settings: chain copies: 2 inferred; label: 33P 5' end
Experimental: as §1, §2

[22] = target: T3, BsoBI D246C; assay: filter; 4 mM CaCl2; ±10; settings: chain copies: 2 inferred; label: 33P 5' end
Experimental: as §1, §2

[23] = target: T4, BsoBI D246E; assay: filter; 4 mM CaCl2; ±3347; settings: chain copies: 2 inferred; label: 33P 5' end
Experimental: as §1, §2

[24] = target: T6, BsoBI D246Y; assay: filter; 4 mM CaCl2; ±67; settings: chain copies: 2 inferred; label: 33P 5' end
Experimental: as §1, §2

B1: S1 (CTCGAG) (dsDNA)
DNA 1: GAGTGTTATGGGTAGCTCGAGTGAAGTGGGAATATC
DNA 2: GATATTCCCACTTCACTCGAGCTACCCATAACACTC
Kd [1]: 89 pM | Kd [2]: 219 pM | Kd [3]: 74 pM | Kd [4]: 80000 pM | Kd [5]: 9.2 pM | Kd [6]: 132 pM

B2: S3 (CTCGGG/CCCGAG) (dsDNA)
DNA 1: GAGTGTTATGGGTAGCTCGGGTGAAGTGGGAATATC
DNA 2: GATATTCCCACTTCACCCGAGCTACCCATAACACTC
Kd [7]: 17 pM | Kd [8]: 57 pM | Kd [9]: 5.3 pM | Kd [10]: 64 pM | Kd [11]: 39 pM | Kd [12]: 42100 pM

B3: S2 (CCCGGG) (dsDNA)
DNA 1: GAGTGTTATGGGTAGCCCGGGTGAAGTGGGAATATC
DNA 2: GATATTCCCACTTCACCCGGGCTACCCATAACACTC
Kd [13]: 30 pM | Kd [14]: 41 pM | Kd [15]: 3.1 pM | Kd [16]: 6.6 pM | Kd [17]: 2840 pM | Kd [18]: 38 pM

B4: N (CATAAC, non-specific) (dsDNA)
DNA 1: GAGTGTTATGGGTAGCATAACTGAAGTGGGAATATC
DNA 2: GATATTCCCACTTCAGTTATGCTACCCATAACACTC
Kd [19]: 1440 pM | Kd [20]: 578 pM | Kd [21]: 64 pM | Kd [22]: 142 pM | Kd [23]: 93200 pM | Kd [24]: 449 pM
